Consider 2 molecules from PMC10397247.

Holding throughout (experiment): two-hybrid library CCNG1;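 also: natural log of median RNA to DNA barcode read ratio; higher means stronger binding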
The target of test [1] is T1, 4H2859-bA.
T1 chain: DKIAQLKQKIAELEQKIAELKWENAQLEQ

The target of test [2] is T2, 4H235-bA.
T2 chain: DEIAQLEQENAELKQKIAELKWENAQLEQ

Test [3] addresses T3, 4H349-bA.
T3 chain: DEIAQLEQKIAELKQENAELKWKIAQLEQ

Test [4] deals with T4, 4H2253-bA.
T4 chain: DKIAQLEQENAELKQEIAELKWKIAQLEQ

For test [5], the target named is T5, 4H56-bA.
T5 chain: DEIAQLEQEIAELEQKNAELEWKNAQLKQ

The target of test [6] is T6, 4H2518-bA.
T6 chain: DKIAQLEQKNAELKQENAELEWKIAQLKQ

Test [7] concerns the target T7, 4H796-bA.
T7 chain: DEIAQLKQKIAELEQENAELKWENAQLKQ

For test [8], the target named is T8, 4H949-bA.
T8 chain: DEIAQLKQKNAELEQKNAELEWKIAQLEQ

Test [9] addresses T9, 4H932-bA.
T9 chain: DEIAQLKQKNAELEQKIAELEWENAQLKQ

In test [10] the target is T10, P6bH1.
T10 chain: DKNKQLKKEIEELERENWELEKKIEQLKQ

For test [11], the target named is T11, 4H3041-bA.
T11 chain: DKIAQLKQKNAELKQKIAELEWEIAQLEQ

For test [12], the target named is T12, 4H2931-bA.
T12 chain: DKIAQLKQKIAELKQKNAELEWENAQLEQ

The target of test [13] is T13, 4H2585-bA.
T13 chain: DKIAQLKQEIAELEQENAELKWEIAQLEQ

Test [14] has as its target T14, 4H3381-bA.
T14 chain: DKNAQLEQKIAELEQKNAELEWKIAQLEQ

In test [15] the target is T15, 4H3297-bA.
T15 chain: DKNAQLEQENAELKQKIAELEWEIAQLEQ

The target in test [16] is T16, 4H730-bA.
T16 chain: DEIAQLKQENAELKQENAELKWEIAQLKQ

Test [17] concerns the target T17, 4H3364-bA.
T17 chain: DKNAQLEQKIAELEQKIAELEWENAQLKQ

Test [18] concerns the target T18, 4H264-bA.
T18 chain: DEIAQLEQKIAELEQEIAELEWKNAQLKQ

For test [19], the target named is T19, 4H2444-bA.
T19 chain: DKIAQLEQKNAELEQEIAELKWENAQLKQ

Test [20] has as its target T20, 4H2760-bA.
T20 chain: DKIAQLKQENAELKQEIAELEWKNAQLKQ

In test [21] the target is T21, P7A-bP.
T21 chain: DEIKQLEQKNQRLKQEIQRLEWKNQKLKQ

The target of test [22] is T22, P8A-bP.
T22 chain: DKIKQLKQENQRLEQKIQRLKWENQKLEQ

Test [23] has as its target T23, P5A-bP.
T23 chain: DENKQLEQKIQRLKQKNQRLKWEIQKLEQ

Test [24] addresses T24, P9A-bP.
T24 chain: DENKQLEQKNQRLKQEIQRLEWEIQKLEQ

Test [25] addresses T25, P4A-bP.
T25 chain: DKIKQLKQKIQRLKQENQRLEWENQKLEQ

Test [26] addresses T26, P3A-bP.
T26 chain: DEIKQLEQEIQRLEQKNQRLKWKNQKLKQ

Test [27] has as its target T27, P6A-bP.
T27 chain: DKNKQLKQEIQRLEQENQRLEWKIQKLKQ

For the molecule DKIAQLEQENAELKQEIAELKWKIAQLEQ [4H2253-bA], the interaction score was -0.839 in [1]; 0.641 in [2]; -0.459 in test [3]; 1.28 in [4]; -0.0723 in test [5]; 0.247 in test [6]. The interaction score was -1.65 in [7]; -0.968 in test [8]; -0.529 in test [9]; -1.05 in test [10]; 0.651 in [11]; -0.566 in test [12]. In addition, the interaction score was -0.557 in test [13]; -0.743 in test [14]; 0.145 in test [15]; -0.707 in test [16]; -0.504 in [17]; -0.996 in test [18]. Also, the interaction score came to 0.026 in [19] and 0.778 in test [20].
With DEIKQLEQEIQRLEQKNQRLKWKNQKLKQ [P3A-bP], the interaction score is -0.807 in [21]; -0.641 in test [22]; -0.806 in test [23]; -0.126 in test [24]; 0.89 in test [25]; -0.848 in test [26]. Further, the interaction score in test [27] is -0.316.
